Measured values taken from the supplement of paper PMC10567573.

B1: KCNK9 (parent)
chain: CFITLTTIGFGDYVALQTKGALQK

Variants of: B1
Assay: protein stability index of a GFP-peptide fusion (GPS, HEK-293T) (PSI 1-6); higher = more stable
Settings: c terminus: a fixed tail appended
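Also: lentivirally expressed fusions sorted by FACS into six bins by GFP to DsRed ratio, PSI derived from sequencing read proportions per bin multiplied by bin number.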

| Variant | protein stability index |
| --- | --- |
| CFITLTTIGFGDYVSLQTKGALQK | 4.26 |
| CFITLTTIGFGDYVCLQTKGALQK | 3.23 |
| CFITLTTIGFGDYVKLQTKGALQK | 2.38 |
| CFITLTTIGFGDYVVLQTKGALQK | 2.68 |
| CFITLTTIGFGDYVRLQTKGALQK | 3.46 |
| CFITLTTIGFGDYVHLQTKGALQK | 3.04 |
| CFITLTTIGFGDYVWLQTKGALQK | 3.31 |
| CFITLTTIGFGDYVPLQTKGALQK | 3.05 |
| CFITLTTIGFGDYVTLQTKGALQK | 3.18 |
| CFITLTTIGFGDYVGLQTKGALQK | 2.48 |
| CFITLTTIGFGDYVYLQTKGALQK | 2.43 |
| CFITLTTIGFGDYVILQTKGALQK | 3.38 |
| CFITLTTIGFGDYVLLQTKGALQK | 2.64 |
| CFITLTTIGFGDYVQLQTKGALQK | 2.3 |
| CFITLTTIGFGDYVDLQTKGALQK | 3.31 |
| CFITLTTIGFGDYVFLQTKGALQK | 2.37 |
| CFITLTTIGFGDYVELQTKGALQK | 2.93 |
| CFITLTTIGFGDYVNLQTKGALQK | 2.76 |
| CFITLTTIGFGDYVMLQTKGALQK | 3.04 |
| CFITLTTIGFGDYVACQTKGALQK | 2.03 |
| CFITLTTIGFGDYVAFQTKGALQK | 2.53 |
| CFITLTTIGFGDYVARQTKGALQK | 2.74 |
| CFITLTTIGFGDYVAKQTKGALQK | 3.4 |
| CFITLTTIGFGDYVAVQTKGALQK | 3.73 |

| Variant | protein stability index |
| --- | --- |
| CFITLTTIGFGDYVAGQTKGALQK | 1.89 |
| CFITLTTIGFGDYVADQTKGALQK | 2.23 |
| CFITLTTIGFGDYVAYQTKGALQK | 2.44 |
| CFITLTTIGFGDYVAIQTKGALQK | 2.65 |
| CFITLTTIGFGDYVASQTKGALQK | 1.75 |
| CFITLTTIGFGDYVATQTKGALQK | 2.26 |
| CFITLTTIGFGDYVAEQTKGALQK | 3.25 |
| CFITLTTIGFGDYVAHQTKGALQK | 2.43 |
| CFITLTTIGFGDYVAPQTKGALQK | 2.64 |
| CFITLTTIGFGDYVANQTKGALQK | 2.54 |
| CFITLTTIGFGDYVAMQTKGALQK | 1.56 |
| CFITLTTIGFGDYVAAQTKGALQK | 3.26 |
| CFITLTTIGFGDYVAQQTKGALQK | 2.65 |
| CFITLTTIGFGDYVAWQTKGALQK | 2.27 |
| CFITLTTIGFGDVVALQTKGALQK | 2.57 |
| CFITLTTIGFGDCVALQTKGALQK | 3.93 |
| CFITLTTIGFGDEVALQTKGALQK | 2.12 |
| CFITLTTIGFGDQVALQTKGALQK | 2.05 |
| CFITLTTIGFGDPVALQTKGALQK | 2.92 |
| CFITLTTIGFGDSVALQTKGALQK | 2.51 |
| CFITLTTIGFGDDVALQTKGALQK | 2.1 |
| CFITLTTIGFGDLVALQTKGALQK | 2.38 |
| CFITLTTIGFGDWVALQTKGALQK | 2.93 |
| CFITLTTIGFGDKVALQTKGALQK | 2.24 |

| Variant | protein stability index |
| --- | --- |
| CFITLTTIGFGDHVALQTKGALQK | 2.07 |
| CFITLTTIGFGDGVALQTKGALQK | 2.42 |
| CFITLTTIGFGDNVALQTKGALQK | 2.04 |
| CFITLTTIGFGDIVALQTKGALQK | 2.31 |
| CFITLTTIGFGDTVALQTKGALQK | 3.55 |
| CFITLTTIGFGDAVALQTKGALQK | 3.35 |
| CFITLTTIGFGDRVALQTKGALQK | 2.32 |
| CFITLTTIGFGDMVALQTKGALQK | 3.32 |
| CFITLTTIDFGDYVALQTKGALQK | 2.33 |
| CFITLTTIAFGDYVALQTKGALQK | 3.95 |
| CFITLTTISFGDYVALQTKGALQK | 1.73 |
| CFITLTTIRFGDYVALQTKGALQK | 1.36 |
| CFITLTTIHFGDYVALQTKGALQK | 2.51 |
| CFITLTTIQFGDYVALQTKGALQK | 2.81 |
| CFITLTTITFGDYVALQTKGALQK | 2.21 |
| CFITLTTICFGDYVALQTKGALQK | 2.83 |
| CFITLTTIMFGDYVALQTKGALQK | 2.8 |
| CFITLTTINFGDYVALQTKGALQK | 2.02 |
| CFITLTTIIFGDYVALQTKGALQK | 2.7 |
| CFITLTTIWFGDYVALQTKGALQK | 2.9 |
| CFITLTTILFGDYVALQTKGALQK | 3.46 |
| CFITLTTIKFGDYVALQTKGALQK | 2.5 |
| CFITLTTIPFGDYVALQTKGALQK | 1.99 |
| CFITLTTIEFGDYVALQTKGALQK | 1.58 |

| Variant | protein stability index |
| --- | --- |
| CFITLTTIVFGDYVALQTKGALQK | 4.79 |
| CFITLTTIYFGDYVALQTKGALQK | 1.93 |
| CFITLTTIFFGDYVALQTKGALQK | 3.77 |
| CFITLTTIGFGAYVALQTKGALQK | 3.21 |
| CFITLTTIGFGCYVALQTKGALQK | 3.65 |
| CFITLTTIGFGFYVALQTKGALQK | 2.49 |
| CFITLTTIGFGQYVALQTKGALQK | 2.05 |
| CFITLTTIGFGYYVALQTKGALQK | 3.4 |
| CFITLTTIGFGPYVALQTKGALQK | 2.67 |
| CFITLTTIGFGTYVALQTKGALQK | 2.49 |
| CFITLTTIGFGIYVALQTKGALQK | 3.71 |
| CFITLTTIGFGMYVALQTKGALQK | 4.64 |
| CFITLTTIGFGGYVALQTKGALQK | 3.42 |
| CFITLTTIGFGHYVALQTKGALQK | 3.68 |
| CFITLTTIGFGVYVALQTKGALQK | 2.96 |
| CFITLTTIGFGEYVALQTKGALQK | 2.69 |
| CFITLTTIGFGKYVALQTKGALQK | 2.82 |
| CFITLTTIGFGRYVALQTKGALQK | 2.62 |
| CFITLTTIGFGWYVALQTKGALQK | 2.12 |
| CFITLTTIGFGNYVALQTKGALQK | 2.71 |
| CFITLTTIGFGDYFALQTKGALQK | 3.46 |
| CFITLTTIGFGDYTALQTKGALQK | 2.64 |
| CFITLTTIGFGDYGALQTKGALQK | 2.69 |
| CFITLTTIGFGDYHALQTKGALQK | 2.99 |

| Variant | protein stability index |
| --- | --- |
| CFITLTTIGFGDYWALQTKGALQK | 2.71 |
| CFITLTTIGFGDYIALQTKGALQK | 2.86 |
| CFITLTTIGFGDYEALQTKGALQK | 2.12 |
| CFITLTTIGFGDYQALQTKGALQK | 3.43 |
| CFITLTTIGFGDYDALQTKGALQK | 2.74 |
| CFITLTTIGFGDYYALQTKGALQK | 3.12 |
| CFITLTTIGFGDYMALQTKGALQK | 2.02 |
| CFITLTTIGFGDYRALQTKGALQK | 2.7 |
| CFITLTTIGFGDYLALQTKGALQK | 3.31 |
| CFITLTTIGFGDYAALQTKGALQK | 3.25 |
| CFITLTTIGFGDYPALQTKGALQK | 2.82 |
| CFITLTTIGFGDYKALQTKGALQK | 1.82 |
| CFITLTTIGFGDYNALQTKGALQK | 1.86 |
| CFITLTTIGFGDYSALQTKGALQK | 2.06 |
| CFITLTTIGFGDYVALYTKGALQK | 3.01 |
| CFITLTTIGFGDYVALWTKGALQK | 2.58 |
| CFITLTTIGFGDYVALRTKGALQK | 2.83 |
| CFITLTTIGFGDYVALTTKGALQK | 2.08 |
| CFITLTTIGFGDYVALHTKGALQK | 3.57 |
| CFITLTTIGFGDYVALNTKGALQK | 2.33 |
| CFITLTTIGFGDYVALLTKGALQK | 2.23 |
| CFITLTTIGFGDYVALGTKGALQK | 2.38 |
| CFITLTTIGFGDYVALDTKGALQK | 2.17 |
| CFITLTTIGFGDYVALETKGALQK | 2.76 |

| Variant | protein stability index |
| --- | --- |
| CFITLTTIGFGDYVALFTKGALQK | 3.02 |
| CFITLTTIGFGDYVALVTKGALQK | 3.42 |
| CFITLTTIGFGDYVALITKGALQK | 2.27 |
| CFITLTTIGFGDYVALCTKGALQK | 3.88 |
| CFITLTTIGFGDYVALPTKGALQK | 3.82 |
| CFITLTTIGFGDYVALMTKGALQK | 2.23 |
| CFITLTTIGFGDYVALKTKGALQK | 2.82 |
| CFITLTTSGFGDYVALQTKGALQK | 2.95 |
| CFITLTTYGFGDYVALQTKGALQK | 1.78 |
| CFITLTTPGFGDYVALQTKGALQK | 2.39 |
| CFITLTTVGFGDYVALQTKGALQK | 3.42 |
| CFITLTTTGFGDYVALQTKGALQK | 3.29 |
| CFITLTTMGFGDYVALQTKGALQK | 2.03 |
| CFITLTTNGFGDYVALQTKGALQK | 2.27 |
| CFITLTTRGFGDYVALQTKGALQK | 1.67 |
| CFITLTTQGFGDYVALQTKGALQK | 3.37 |
| CFITLTTIGFGDYVALQIKGALQK | 2.12 |
| CFITLTTIGFGDYVALQFKGALQK | 1.72 |
| CFITLTTIGFGDYVALQCKGALQK | 3.43 |
| CFITLTTIGFGDYVALQRKGALQK | 2.64 |
| CFITLTTIGFGDYVALQQKGALQK | 2.63 |
| CFITLTTIGFGDYVALQWKGALQK | 3.1 |
| CFITLTTIGFGDYVALQMKGALQK | 2.49 |
| CFITLTTIGFGDYVALQAKGALQK | 2.8 |

| Variant | protein stability index |
| --- | --- |
| CFITLTTIGFGDYVALQKKGALQK | 1.58 |
| CFITLTTIGFGDYVALQDKGALQK | 1.76 |
| CFITLTTIGFGDYVALQHKGALQK | 3 |
| CFITLTTIGFGDYVALQEKGALQK | 2.28 |
| CFITLTTIGFGDYVALQNKGALQK | 2.42 |
| CFITLTTIGFGDYVALQPKGALQK | 1.64 |
| CFITLTTIGFGDYVALQSKGALQK | 2.27 |
| CFITLTTIGFGDYVALQLKGALQK | 3.51 |
| CFITLTTIGFFDYVALQTKGALQK | 3.25 |
| CFITLTTIGFKDYVALQTKGALQK | 2.73 |
| CFITLTTIGFADYVALQTKGALQK | 3.32 |
| CFITLTTIGFQDYVALQTKGALQK | 2.7 |
| CFITLTTIGFEDYVALQTKGALQK | 3.16 |
| CFITLTTIGFTDYVALQTKGALQK | 1.62 |
| CFITLTTIGFDDYVALQTKGALQK | 3.33 |
| CFITLTTIGFLDYVALQTKGALQK | 3.22 |
| CFITLTTIGFVDYVALQTKGALQK | 2.31 |
| CFITLTTIGFNDYVALQTKGALQK | 2.99 |
| CFITLTTIGFIDYVALQTKGALQK | 2.91 |
| CFITLTTIGFCDYVALQTKGALQK | 3.41 |
| CFITLTTIGFMDYVALQTKGALQK | 1.85 |
| CFITLTTIGFYDYVALQTKGALQK | 3.95 |
| CFITLTTIGFSDYVALQTKGALQK | 2.18 |
| CFITLTTIGFHDYVALQTKGALQK | 3.08 |

| Variant | protein stability index |
| --- | --- |
| CFITLTTIGFPDYVALQTKGALQK | 1.99 |
| CFITLTTIGFRDYVALQTKGALQK | 3.04 |
| CFITLTTIGSGDYVALQTKGALQK | 1.39 |
| CFITLTTIGYGDYVALQTKGALQK | 2.12 |
| CFITLTTIGRGDYVALQTKGALQK | 1.7 |
| CFITLTTIGTGDYVALQTKGALQK | 2.59 |
| CFITLTTIGHGDYVALQTKGALQK | 2.73 |
| CFITLTTIGAGDYVALQTKGALQK | 2.05 |
| CFITLTTIGDGDYVALQTKGALQK | 2.17 |
| CFITLTTIGPGDYVALQTKGALQK | 2.78 |
| CFITLTTIGGGDYVALQTKGALQK | 2.16 |
| CFITLTTIGMGDYVALQTKGALQK | 2.62 |
| CFITLTTIGNGDYVALQTKGALQK | 1.58 |
| CFITLTTIGWGDYVALQTKGALQK | 2.33 |
| CFITLTTIGKGDYVALQTKGALQK | 1.85 |
| CFITLTTIGVGDYVALQTKGALQK | 2.06 |
| CFITLTTIGLGDYVALQTKGALQK | 2.73 |
| CFITLTTIGEGDYVALQTKGALQK | 2.46 |
| CFITLTTIGCGDYVALQTKGALQK | 2.79 |
| CFITLTTIGQGDYVALQTKGALQK | 1.56 |
